The results in this text go back to PMC3285607, “A P-loop Mutation in Gα Subunits Prevents Transition to the Active State: Implications for G-protein Signaling in Fungal Pathogenesis” (PLoS Pathogens, 2012).

This experiment concerns the target T1, GαoA, wild type, full-length, hexahistidine-tagged (UniProt P09471 1-354).
T1 construct: also called wild type GαoA
Nature of the experiment: SPR; Biacore 3000; GST-RGS12 RGS domain captured on anti-GST antibody on a CM5 chip; Gαo injected in the GDP·AlF4- state; equilibrium binding isotherm. As to conditions: both partners purified.

T1 sequence (P09471 whole entry): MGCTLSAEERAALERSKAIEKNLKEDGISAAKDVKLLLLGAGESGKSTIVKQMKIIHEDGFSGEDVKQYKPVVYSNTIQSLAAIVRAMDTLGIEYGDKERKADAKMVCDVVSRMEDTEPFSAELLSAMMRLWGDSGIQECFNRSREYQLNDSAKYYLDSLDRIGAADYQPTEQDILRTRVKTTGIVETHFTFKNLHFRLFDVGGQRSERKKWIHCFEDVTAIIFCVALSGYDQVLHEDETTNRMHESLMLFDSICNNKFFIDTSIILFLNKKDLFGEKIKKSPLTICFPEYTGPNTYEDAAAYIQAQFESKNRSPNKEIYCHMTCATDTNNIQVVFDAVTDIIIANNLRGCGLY

B1: GST fusion of the RGS12 RGS domain (aa 664–885) (domain or fragment, UniProt O14924 664-885, looked up)
chain: DLESATVSDGELTGADLKDCVSNNSLSSNASLPSVQSCRRLRERRVASWAVSFERLLQDPVGVRYFSDFLRKEFSEENILFWQACEYFNHVPAHDKKELSYRAREIFSKFLCSKATTPVNIDSQAQLADDVLRAPHPDMFKEQQLQIFNLMKFDSYTRFLKSPLYQECILAEVEGRALPDSQQVPSSPASKHSLGSDHSSVSTPKKLSGKSKSGRSLNEELG
notes: also called GST-RGS12
As for B1, the Kd – broadly, the equilibrium constant for the complex coming apart – stood at 1.27 µM.
